Assay: soluble on expression in E. coli; label from the status in PepcDB or PDB records
For “MVLRDKMILLDENTKAIVQGITGRQGSFHTKKMLECGTKIVGGVTPGKGGQNVHGVPVFDTVKEAVKETDANASVIFVPAPFAKDAVFEAIDAGIELIVVITEHIPVHDTMEFVNYAEDVGVKIIGPNTPGIASPKVGKLGIIPMEVLKEGSVGMVSRSGTLTYEIAHQIKKAGFGVSTCVGIGGDPIVGLRYKEVLDLFEKDDETEAIVMIGEIGGGAEEEAAKFIEKMKKPVIGYIAGQSAPEGKRMGHAGAIVEKGKGTAESKMKALEEAGAYVAKNISDIPKLLAGILGK”, the “soluble on expression in E. coli” value was “soluble”.
In the case of “MNDDRATAFNALKNKTVCVQGDGNSRQFYHALVEILSNHSSAIPVNKNGNDFCNAPFAQCPQDTYYFDLVDKSDNLSVKLYWRWAPEFSDIECPMKVPSGFTPGSNYSFPSGPDTLSCDINIMDAGQWELFEKDANVTTAGYSQGVSNLSKCFSSDKSAKYFWIAAYALTPEQLQIHLPYNNTDVERINEVATQGLNSTACVLNGYDVTVNAFNDTKEATTDGIHYLGWINEQVVQLFFNAVTNSSAPTVPSSNVSVTSPNVQLGQVPNLNPSTTNSFLPVQTIVTVPSSSATSASSGLNFGGSSQGGGSGIPQL”, the “soluble on expression in E. coli” value is reported as “not soluble”.
In the case of “MPNYPFPILWLPPKPLGHLLRNMDFRNLIIFSLTSKPAKWLTELLNMDAPMISVHVDHQINIIVSSVKSVTYHASNGSLRESRGKIDRQINFPGSLKQFVEHLLHIFKEHKIDDLEIMCNSVYQYKPDIQALKGIKMRTLKLRYQESILKMFGTSADRIEFSTIKSAELENSKDILIQNFDYLKFDFEGSLTADNLIGINGKVVNIWAADIEMKDVNIFLKHWLKGSNPRLEKLILKTYRLDTDGNSVEDSVADLFRDLDCESIAESQFEILRDDESIAKISILEHGYWYNKIHCYFSLNEAMNLYTTYFWDIVHLQEKILH”, the “soluble on expression in E. coli” value is reported as “not soluble”.
With “MIRILHTADWHLGQTFFGYDRAEEHKAFLDWLAEEIRQNEIDALVIAGDVFDVSNPSAASQRIYYEFIYRVTAENPKLQIVIVAGNHDSAARLEAPLPLLQAMRTEVRGVVRKLEGGEIDYDHLTIELKNREGEVEVLCMAVPFLRQGDYPVVETEGNPYMEGVRELYARLLQRLWARRKTNQAILAVGHLQATGSEIAEKDYSERTVIGGLECVSPDTFSEKIAYTALGHIHKAQRVSGRENVRYAGSPIPMSFAEKHYHHGVVMVILDEGCAVDIRRIECPQSIPLISVPGGEAASPEKIIEILRDLPEVDGEAPYLEVKVLLEEPEPMLRQEIEEALAGKKYRLARIVSAYRQEERVEKEVDGWKKGLQEMSPLQIAQSAFEKVYQAEMPADLTDLFQEAYISATRKEEEEGE” the “soluble on expression in E. coli” value was “not soluble”.
In the case of “MGSDKIHHHHHHMTSFNSNELQKLYIAFFGRPCDPAGMNYWLSKSEDKANLIDVAKAFSSQEEYKKSLTSVNSIEFQINQIYLNLFARKADFDSLNTWSLKCKRGELKIYELASMLTIEQSNIEEKIDNISLKDVEVLEKKVQAAQLFTDQISKDICWINAYKPDSIDPWILGKALQVGINYLNKVDSSYHLDKYAVTEILHKMSFEKINTSTKAIIKIRNLSLTIPISFKHDQKLSNLLTKGVLNSIIGGQLVKNKTTTKIEALRNINLTIMNGERVALIGHNGSGKTSFLKVISGIYLPTEGDLDVEVDVYPMLQKSFLTSTDLTGVDAAKAHYLLVNKSLNGFDQFLQDIIEFSGLGEFISLPIKTYSEGMSARLIFSILTSIPHDCLAIDEGFGTGDSDFFERAEKRMKSFMNSSGTLILASHSEHLLKQFCTRGIVFNHGQVVYDGSLDASLNYYHTHDYIHSNDN”, the “soluble on expression in E. coli” value is reported as “not soluble”.
With “MTHSPSFLQHALSSSDTRAEWPLPGGLAARWLAPGCVELNGDARGADSVLLSCGVHGNETAPIEVVDGMLTDIAAGQLALNCRLLVMFANLDAIRQGVRYGNYDMNRLFNGAHARHPELPESVRAAELETLAAEFFAGARARKLHYDLHTAIRGSVFEKFAIYPFLHDGRTHKREQLAWLQRCGIEAVLLHTQPANTFSYFTSQYCEADAFTLELGKARPFGQNDLSRFSGIDGALRGLLSNPQANVPDLDEDKLPLFRAKYDLVKHSEAFKLNLADSVENFTLLPDGMLIAEDGAVRYQATGGEERILFPNPAVKPGLRAGIVVEPARLPSRLEHHHHHH” the “soluble on expression in E. coli” value was “soluble”.
In the case of “GPLGSLPEELVHAGWEKCWSRRENRPYYFNRFTNQSLWEMPVLGQHDVISDP”, the “soluble on expression in E. coli” value is reported as “soluble”.
In the case of “GIDPFTFENATSDAINQDMMLYIERIAKIIQKLPKRVHINVRGFTDDTPLVKTRFKSHYELAANRAYRVMKVLIQYGVNPNQLSFSSYGSTNPIAPNDSLENRMKNNRVEIFFSTDANDLSKIHSILDNEFNPHKQQE”, the “soluble on expression in E. coli” value is reported as “soluble”.
For “GDSQDFSSSQSTSPVVHHRPIDQIALSTFEDTTPLKTDEVEQAWEHTQITYVDLRTGAHLGSGAERLARASLSLSKLYIADYVFDHGTQKEKEQAVEMIRKSDDDIADKLFDAYPNCIDSVAKKYQLEATQTYGRWG”, the “soluble on expression in E. coli” value was “not soluble”.
In the case of “MGSDKIHHHHHHMSSRAFSTVAVTDAFFTLVAPVAKNSARIVIIVNSVSTGKNHPQMVALQQTVQQLGYAHVQLLDVLTDDLAALNTATVIILNGGYEFLLLKNLRETHVLERLRTLALAGKPIYGISAGAILLGPDLDLYVYLYPEDNTEQLASTTAINATTIRIYPHYDVHCEVKPQLPQLITDWEHKTGVTVKRLTNNQGLLVHGSQIQMIDSDS”, the “soluble on expression in E. coli” value is reported as “not soluble”.
In the case of “MTPLSALTSNPAPSPPPKFALGKCPATAIHVVSVLRPNRQRFCYEKTDAGDLIPHKCLICQPILTEKHISPYYAVYSDLLEDFVLFGYNTMTGKMEQFIYAFKTDCFVEVNRPEIKYNPAFLVKGNVVVALNGPEGELVVIERDCRGLLSKESTSYGQFRTLPTAALRTLTLQDLERDRWDRAANSDEVKISSGNESFDRLYAEYQKNLPRFQVRQCLHLNKEFLCVYSKTSGDYTRLEYIDETGDFQKISCTLCTCEVTESNLIPLYVERNASELVIHVHNTENNQIEQYIYDVRTFGFVQVKRNLVYDPKKITSGLNLFMAENIDNRKVYMIMRGRDGRLQKETSGSGGFEKMQPVAVKTFQVQWVEMKTEFEKKKASTERVEPQHPVQTEGEDIMETVLAMVESFNCDLRKELGLTQDQEIPRKAPRVESAETEENIVKNLEKLQIAKDPEEPTTAASEGGNTYGYQELDDTMSEGLLEKEAESKHQDANEPEPVKNVTYEPDVAAMDKKKKRRELKSRLNKINAQIDELEKRRMERAGKKQVVSSSVPSEEAAQVEAPASPALAENTNQISNEETPKIDIFEGYNGSFLFGTNTSKEWIVEDIRNHMVGKLLKAFWPRIQNVEEMNGELFKKLIANARKCETEILEASNDRDEYYRLMQLTVDQILKKTLKKDQRATEHNHQQPTQSSDELAKNHEKN”, the “soluble on expression in E. coli” value is reported as “not soluble”.
With “SNIEALADKVRTYLEAGQIDGFVRTLRARPEAGGKVPVFVFHPAGGSTVVYEPLLGRLPADTPMYGFERVEGSIEERAQQYVPKLIEMQGDGPYVLVGWSLGGVLAYACAIGLRRLGKDVRFVGLIDAVRAGEEIPQTKEEIRKRWDRYAAFAEKTFNVTIPAIPYEQLEELDDEGQVRFVLDAVSQSGVQIPAGIIEHQRTSYLDNRAIDTAQIQPYDGHVTLYMADRYHDDAIMFEPRYAVRQPDGGWGEYVSDLEVVPIGGEHIQAIDEPIIAKVGEHMSRA” the “soluble on expression in E. coli” value was “soluble”.
With “KQGPTSVAYVEVNNNSMLNVGKYTLADGGGNAFDVAVIFAANINYDTGTKTAYLHFNENVQRVLDNAVTQIRPLQQQGIKVLLSVLGNHQGAGFANFPSQQAASAFAKQLSDAVAKYGLDGVDFNDEYAEYGNNGTAQPNDSSFVHLVTALRANMPDKIISLYNIGPAASRLSYGGVDVSDKFDYAWNPYYGTWQVPGIALPKAQLSPAAVEIGRTSRSTVADLARRTVDEGYGVYLTYNLDGGDRTADVSAFTRELYGSEAVRT” the “soluble on expression in E. coli” value was “soluble”.
In the case of “MAHHHHNSGPLEFTVSANTNPATDAVRESILANPGFGKYYTDHMVSIDYTVDEGWHNAQVIPYGPIQLDPSAIVLHYGQEIFEGLKAYRWADGSIVSFRPEANAARLQSSARRLAIPELPEEVFIESLRQLIAVDEKWVPPAGGEESLYLRPFVIATEPGLGVRPSNEYRYLLIASPAGAYFKGGIKPVSVWLSHEYVRASPGGTGAAKFGGNYAASLLAQAQAAEMGCDQVVWLDAIERRYVEEMGGMNLFFVFGSGGSARLVTPELSGSLLPGITRDSLLQLATDAGFAVEERKIDVDEWQKKAGAGEITEVFACGTAAVITPVSHVKHHDGEFTIADGQPGEITMALRDTLTGIQRGTFADTHGWMARLN”, the “soluble on expression in E. coli” value is reported as “soluble”.
With “MGSDKIHHHHHHMRIQQLHYIIKIVETGSMNEAAKQLFITQPSLSNAVRDLEREMGIEIFIRNPKGITLTKDGVEFLSYARQVVEQTALLEERYKSQGHTRELFSVSAQHYAFVVNAFVSLLKETDMTRYELFLRETRTYEIIDDVKNFRSEIGVLFLNSYNHDVLTKMFDDNHLTYTSLFKAHPHIFVSKDNPLAKHQSVSLSDLEDFPYLSYDQGIHNSFYFSEEIMSQISHKKSIVVSDRATLFNLMIGLDGYTIATGILNSNLNGDNIVSIPLEVDDEIDIIYLKHEKANLSKMGEKFIDYLLEEVKFDK” the “soluble on expression in E. coli” value was “not soluble”.
In the case of “MSFGKIVVFLVLVLVQLIHCTRFTAPSLDRTIYYRNTPPDPFGHYSFEFQTTNGITTKGAGNENGAVGVVQFVSPEGIPVTFSYVADANGYQPTGDHIPAIPLHVIRQLEYIRTHPPVDEIRSRRWLEHHHHHH”, the “soluble on expression in E. coli” value is reported as “not soluble”.
In the case of “MTLIILEGPDCCFKSTVAAKLSKELKYPIIKGSSFELAKSGNEKLFEHFNKLADEDNVIIDRFVYSNLVYAKKFKDYSILTERQLRFIEDKIKAKAKVVYLHADPSVIKKRLRVRGDEYIEGKDIDSILELYREVMSNAGLHTYSWDTGQWSSDEIAKDIIFLVELEHHHHHH”, the “soluble on expression in E. coli” value is reported as “soluble”.
In the case of “MHTNMWVVDNVVERKKYYPQLQEAAKLLRENEAIAFPTETVYGLGANAMNDEAIAKIFEAKGRPSDNPLIVHIGTKSQLDGIVKEIPPVAEKLMEHFWPGPLTIILPRKEGISEKVTAGLHTVGVRMPDHPVALALIEEANVPVAAPSANRSGRPSPTLASHVYEDLNEKIAGIVDGGATGVGVESTVIDCTSAVPTILRPGGITKEQLEAVIGTVSLDPALKDEKEKPKSPGMKYTHYAPKAPLSIVEGSREFIQRLVDEKKEEGFKVGVLTTEEYHHIYNADVVLSCGVRSDLASVATKLYDVLRTFDASEVDVIFSESFPNEGIGNAIMNRLTKAAGHHIITE”, the “soluble on expression in E. coli” value is reported as “not soluble”.
In the case of “MGSDKIHHHHHHMRLPQKMFKIDTYLSPGEAFHFVRKELSEASPVLEHDHDYYELFLIQQGQVYHWINGLEEMLEPGHMVFVRPSDRHALQGAPGTGAKILNVMFRTQTAAHLVTRYADVFGGRFFWQPGPLPVTLRLHGPQRERAINSMLTLDTSFRNLARIELFLLSVMTHVLDTGEIVDGRAPGWLLQACHAAREPRVFRQGADGFLHAAGRSQAHVCRQARRYLGLSPTQYVNRIRIQHAAMLLAGTERGLPDIAADCGFENLSYFHRLFREQYGTTPRGYRHRHVRPIAPL”, the “soluble on expression in E. coli” value is reported as “not soluble”.
In the case of “MKKIILIGSGGSGKSTLARQLGNKLNIKVHHLDALFWKPNWEGVPREEQITVQNNLIKDEKWIIDGNYGGTMGIRLNAADTIIFLDIHRTICVYRAFKRIVKYRNKTRPDMGAGCEERFDLQFFKWIWEYPNAKRPTILKELEQLPEEKKVIVLKSPNEVRKFLEHI”, the “soluble on expression in E. coli” value is reported as “soluble”.
For “MSLELKKFFVLVLLLGSVCPAFCGGDTLHCRFYFPVGSAIPDLSYRDNGPRLDSFLSSIRSLQERAVLRRVRLRSGASPEGNSMLNRRLSDERLVSLRAVMRERLSVPDSVLVCLSSGEDWEGLSVLVGESDMPCRDEVLRILRDTPVWVVRGGKVVDSRKRQLMNLRGGSVWRYMAEHFFPELRNCTVVECEFGPVISGNDREIAVYQKEAEARDTVILRDTVERTVVIRDTVQVPASVGNALKPFYMGLKTNLLYDALLVPNLGVEFYLGRGWSFGGNWMYAWWKSDRHHNYWRIYGGELALRKYFGRRAAEKPLAGHHLGLYGQLFTYDFEVGGTGYMGGRPGGTLWEKMNYAVGLEYGYSLPIARRLNLDFVIGVGYWGGEYHKYDPVDGCYVWKETLQRHWFGPTKAEVSLVWLLGRGNHNEKGGKEGHHHHHH”, the “soluble on expression in E. coli” value was “not soluble”.
